This note sets out measurements from article PMC11096414.

The experiment has as its target Flag-tagged MAVS wt, Q7Z434. Put plainly: co-IP. As to conditions: remark: other sources report otherwise.

Sequence of Flag-tagged MAVS wt, Q7Z434 (Q7Z434 whole entry): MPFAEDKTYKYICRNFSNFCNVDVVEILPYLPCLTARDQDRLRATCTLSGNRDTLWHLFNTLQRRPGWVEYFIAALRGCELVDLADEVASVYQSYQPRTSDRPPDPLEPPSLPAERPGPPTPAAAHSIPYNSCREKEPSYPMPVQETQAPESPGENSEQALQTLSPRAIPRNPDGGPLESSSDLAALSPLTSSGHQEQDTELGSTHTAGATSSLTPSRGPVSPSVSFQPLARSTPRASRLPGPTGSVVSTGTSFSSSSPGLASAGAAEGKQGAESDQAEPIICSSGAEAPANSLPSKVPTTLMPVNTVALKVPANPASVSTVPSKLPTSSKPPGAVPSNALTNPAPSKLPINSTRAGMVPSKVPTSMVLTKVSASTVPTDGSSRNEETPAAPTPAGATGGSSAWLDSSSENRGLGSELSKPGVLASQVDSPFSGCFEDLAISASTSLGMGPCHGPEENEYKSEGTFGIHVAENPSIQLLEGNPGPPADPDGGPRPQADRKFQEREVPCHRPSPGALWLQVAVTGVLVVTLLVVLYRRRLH

B1: GFP-tagged TBK1, Q9UHD2 1-729 (enzyme)
chain: MQSTSNHLWLLSDILGQGATANVFRGRHKKTGDLFAIKVFNNISFLRPVDVQMREFEVLKKLNHKNIVKLFAIEEETTTRHKVLIMEFCPCGSLYTVLEEPSNAYGLPESEFLIVLRDVVGGMNHLRENGIVHRDIKPGNIMRVIGEDGQSVYKLTDFGAARELEDDEQFVSLYGTEEYLHPDMYERAVLRKDHQKKYGATVDLWSIGVTFYHAATGSLPFRPFEGPRRNKEVMYKIITGKPSGAISGVQKAENGPIDWSGDMPVSCSLSRGLQVLLTPVLANILEADQEKCWGFDQFFAETSDILHRMVIHVFSLQQMTAHKIYIHSYNTATIFHELVYKQTKIISSNQELIYEGRRLVLEPGRLAQHFPKTTEENPIFVVSREPLNTIGLIYEKISLPKVHPRYDLDGDASMAKAITGVVCYACRIASTLLLYQELMRKGIRWLIELIKDDYNETVHKKTEVVITLDFCIRNIEKTVKVYEKLMKINLEAAELGEISDIHTKLLRLSSSQGTIETSLQDIDSRLSPGGSLADAWAHQEGTHPKDRNVEKLQVLLNCMTEIYYQFKKDKAERRLAYNEEQIHKFDKQKLYYHATKAMTHFTDECVKKYEAFLNKSEEWIRKMLHLRKQLLSLTNQCFDIEEEVSKYQEYTNELQETLPQKMFTASSGIKHTMTPIYPSSNTLVEMTLGMKKLKEEMEGVVKELAENNHILERFGSLTMDGGLRNVDCL
For B1, the fold reduction of the co-precipitate in the presence of 4-OI (against no 4-OI) is 3.7 fold.

B2: GFP-tagged RIG-I, O95786 1-925 (natural protein)
chain: MTTEQRRSLQAFQDYIRKTLDPTYILSYMAPWFREEEVQYIQAEKNNKGPMEAATLFLKFLLELQEEGWFRGFLDALDHAGYSGLYEAIESWDFKKIEKLEEYRLLLKRLQPEFKTRIIPTDIISDLSECLINQECEEILQICSTKGMMAGAEKLVECLLRSDKENWPKTLKLALEKERNKFSELWIVEKGIKDVETEDLEDKMETSDIQIFYQEDPECQNLSENSCPPSEVSDTNLYSPFKPRNYQLELALPAMKGKNTIICAPTGCGKTFVSLLICEHHLKKFPQGQKGKVVFFANQIPVYEQQKSVFSKYFERHGYRVTGISGATAENVPVEQIVENNDIIILTPQILVNNLKKGTIPSLSIFTLMIFDECHNTSKQHPYNMIMFNYLDQKLGGSSGPLPQVIGLTASVGVGDAKNTDEALDYICKLCASLDASVIATVKHNLEELEQVVYKPQKFFRKVESRISDKFKYIIAQLMRDTESLAKRICKDLENLSQIQNREFGTQKYEQWIVTVQKACMVFQMPDKDEESRICKALFLYTSHLRKYNDALIISEHARMKDALDYLKDFFSNVRAAGFDEIEQDLTQRFEEKLQELESVSRDPSNENPKLEDLCFILQEEYHLNPETITILFVKTRALVDALKNWIEGNPKLSFLKPGILTGRGKTNQNTGMTLPAQKCILDAFKASGDHNILIATSVADEGIDIAQCNLVILYEYVGNVIKMIQTRGRGRARGSKCFLLTSNAGVIEKEQINMYKEKMMNDSILRLQTWDEAVFREKILHIQTHEKFIRDSQEKPKPVPDKENKKLLCRKCKALACYTADVRVIEECHYTVLGDAFKECFVSRPHPKPKQFSSFEKRAKIFCARQNCSHDWGIHVKYKTFEIPVIKIESFVVEDIATGVQTLYSKWKDFHFEKIPFDPAEMSK
Consider B2, for which the fold reduction of the co-precipitate in the presence of 4-OI (against no 4-OI) came out at 1.6 fold.
